{"source": "ChEMBL document CHEMBL1129705", "about": "“Synthesis of phosphinic acid transition state analogues for the reaction catalysed by kynureninase” (Bioorg Med Chem Lett, 1996)", "proteins": {"B1": {"name": "Kynureninase (Homo sapiens), Q16719 (protein)", "chain": "MEPSSLELPADTVQRIAAELKCHPTDERVALHLDEEDKLRHFRECFYIPKIQDLPPVDLSLVNKDENAIYFLGNSLGLQPKMVKTYLEEELDKWAKIAAYGHEVGKRPWITGDESIVGLMKDIVGANEKEIALMNALTVNLHLLMLSFFKPTPKRYKILLEAKAFPSDHYAIESQLQLHGLNIEESMRMIKPREGEETLRIEDILEVIEKEGDSIAVILFSGVHFYTGQHFNIPAITKAGQAKGCYVGFDLAHAVGNVELYLHDWGVDFACWCSYKYLNAGAGGIAGAFIHEKHAHTIKPALVGWFGHELSTRFKMDNKLQLIPGVCGFRISNPPILLVCSLHASLEIFKQATMKALRKKSVLLTGYLEYLIKHNYGKDKAATKKPVVNIITPSHVEERGCQLTITFSVPNKDVFQELEKRGVVCDKRNPNGIRVAPVPLYNSFHDVYKFTNLLTSILDSAETKN"}}, "substrate": "Nc1ccccc1C(=O)C[C@H](N)C(=O)O", "conditions": "Pseudomonas fluorescens", "description": "Compound was evaluated for its binding affinity against kynureninase isolated from Pseudomonas fluorescence"}
{"protein": "B1", "values": [{"measurement": "Km", "result": 25.6, "unit": "µM"}]}
